{"source": "patent US20220332800A1", "about": "(Takeda / Millennium, published 2022)", "binders": {"B1": {"name": "anti-ZIKV antibody 181-4/329-2 (antibody)", "heavy": "QAQLEESGGDLVKPEGSLTLTCTASGFSFTDRHYMCWVRQAPGKGLEWIACVYPGSSGSTYYASWARGRFTISKTSSTTVTLRMTSLTAADTATYFCARSSYPDSSGYSYGMDLWGPGTLVTVSSGQPKAPSVFPLAPCCGDTPSSTVTLGCLVKGYLPEPVTVTWNSGTLTNGVRTFPSVRQSSGLYSLSSVVSVTSSSQPVTCNVAHPATNTKVDKTVAPSTCSKPTCPPPELLGGPSVFIFPPKPKDTLMISRTPEVTCVVVDVSQDDPEVQFTWYINNEQVRTARPPLREQQFNSTIRVVSTLPIAHQDWLRGKEFKCKVHNKALPAPIEKTISKARGQPLEPKVYTMGPPREELSSRSVSLTCMINGFYPSDISVEWEKNGKAEDNYKTTPAVLDSDGSYFLYSKLSVPTSEWQRGDVFTCSVMHEALHNHYTQKSISRSPGK", "light": "DIVMTQTPASVEAAVGGTVTIKCQASQNINSNLAWYQQKPGQRPKFLMYLTSKLASGVPSRFRGSGSGTQFTLTISDLECADAATYYCQTYYDISNYGYAFGGGTEVVVKGDPVAPTVLIFPPAADQVATGTVTIVCVANKYFPDVTVTWEVDGTTQTTGIENSKTPQNSADCTYNLSSTLTLTSTQYNSHKEYTCKVTQGTTSVVQSFNRGDC"}, "B2": {"name": "anti-ZIKV antibody 260-3 (antibody)", "heavy": "B1 heavy with S124P", "light": "B1 light", "notes": "also called clone 260-3"}}, "key": {"[1]": {"target": "T1, ZIKV-VLP (Native Antigen Inc.) (Zika virus)", "T1 construct": "also called Zika VLP; ZVLP", "assay": "indirect ELISA, purified antibody serially diluted from 10 µg/ml"}, "[2]": {"target": "T1, ZIKV-VLP (Native Antigen Inc.)", "assay": "BLI binning on ZIKV-VLP; 1st mAb: 242-3"}, "[3]": {"target": "T1, ZIKV-VLP (Native Antigen Inc.)", "assay": "BLI (Octet), supernatant IgG captured on Protein A biosensor, ZIKV-VLP 3.3 µg/mL in solution, 1:1 model"}, "Zika PRVABC59 live virus": {"target": "Zika PRVABC59 live virus (Zika virus)", "assay": "cell-based or functional assay"}, "[4]": {"target": "T1, ZIKV-VLP (Native Antigen Inc.)", "assay": "BLI binning on ZIKV-VLP; 1st mAb: 181-4"}, "[5]": {"target": "T1, ZIKV-VLP (Native Antigen Inc.)", "assay": "BLI binning on ZIKV-VLP; 1st mAb: 289-3"}, "[6]": {"target": "T1, ZIKV-VLP (Native Antigen Inc.)", "assay": "BLI binning on ZIKV-VLP; 1st mAb: 11-3"}, "[7]": {"target": "T1, ZIKV-VLP (Native Antigen Inc.)", "assay": "BLI binning on ZIKV-VLP; 1st mAb: Ab1"}, "[8]": {"target": "T1, ZIKV-VLP (Native Antigen Inc.)", "assay": "BLI binning on ZIKV-VLP; 1st mAb: 270-12"}, "[9]": {"target": "T1, ZIKV-VLP (Native Antigen Inc.)", "assay": "BLI binning on ZIKV-VLP; 1st mAb: Ab2"}, "[10]": {"target": "T1, ZIKV-VLP (Native Antigen Inc.)", "assay": "BLI binning on ZIKV-VLP; 1st mAb: C10"}, "[11]": {"target": "T1, ZIKV-VLP (Native Antigen Inc.)", "assay": "BLI binning on ZIKV-VLP; 1st mAb: 4G2"}, "[12]": {"target": "T1, ZIKV-VLP (Native Antigen Inc.)", "assay": "BLI binning on ZIKV-VLP; 1st mAb: 102-1"}, "[13]": {"target": "T1, ZIKV-VLP (Native Antigen Inc.)", "assay": "BLI binning on ZIKV-VLP; 1st mAb: 260-2"}, "[14]": {"target": "T1, ZIKV-VLP (Native Antigen Inc.)", "assay": "BLI binning on ZIKV-VLP; 1st mAb: 78-2"}, "[15]": {"target": "T1, ZIKV-VLP (Native Antigen Inc.)", "assay": "BLI binning on ZIKV-VLP; 1st mAb: 329-2"}, "[16]": {"target": "T1, ZIKV-VLP (Native Antigen Inc.)", "assay": "BLI binning on ZIKV-VLP; 1st mAb: 306-2"}}, "note": "Positions count from the first letter of the chain named.", "data": [{"binder": "B1", "values": [{"measurement": "EC50", "setting": "[1]", "value": 0.0114, "unit": "µg/mL"}, {"measurement": "response of 2nd mAb", "setting": "[2]", "value": 0.01}, {"measurement": "koff", "setting": "[3]", "value": "< 1e-07", "unit": "s⁻¹"}, {"measurement": "MNT IC50 (ng/mL) of Purified antibody", "setting": "Zika PRVABC59 live virus", "value": 26.7, "unit": "ng/mL"}]}, {"binder": "B2", "values": [{"measurement": "response of 2nd mAb", "setting": "[4]", "value": 0}, {"measurement": "response of 2nd mAb", "setting": "[5]", "value": -0.03}, {"measurement": "EC50", "setting": "[1]", "value": 0.00793, "unit": "µg/mL"}, {"measurement": "response of 2nd mAb", "setting": "[6]", "value": 0.36}, {"measurement": "response of 2nd mAb", "setting": "[7]", "value": 0.32}, {"measurement": "response of 2nd mAb", "setting": "[8]", "value": 0.01}, {"measurement": "response of 2nd mAb", "setting": "[9]", "value": 4.96}, {"measurement": "response of 2nd mAb", "setting": "[10]", "value": 4.06}, {"measurement": "response of 2nd mAb", "setting": "[11]", "value": 0.67}, {"measurement": "response of 2nd mAb", "setting": "[12]", "value": 0.03}, {"measurement": "response of 2nd mAb", "setting": "[13]", "value": 0}, {"measurement": "response of 2nd mAb", "setting": "[14]", "value": 0.33}, {"measurement": "response of 2nd mAb", "setting": "[15]", "value": 0.01}, {"measurement": "response of 2nd mAb", "setting": "[2]", "value": 0.01}, {"measurement": "koff", "setting": "[3]", "value": "< 1e-07", "unit": "s⁻¹"}, {"measurement": "response of 2nd mAb", "setting": "[16]", "value": 0.32}, {"measurement": "MNT IC50 (ng/mL) of Purified antibody", "setting": "Zika PRVABC59 live virus", "value": 19.9, "unit": "ng/mL"}]}]}
